Percent of processive motor complexes transporting large foci of PR30 data for one substance are collected here from PMC8034861.

In the test the target is Alexa Fluor 488-PR30 peptide (human). As to the kind of experiment: single-molecule TIRF motility assay, co-transport of peptide foci with motors; 1 μM fluorescent PR30 with KIF5B::GFP or TMR-dynein-dynactin-BICD2N on immobilised microtubules; motility buffer with 25 mM KCl, α-casein, 5 mM MgATP; 23 ± 1°C; foci of PR30 moving with processive motors scored on kymographs.
Sequence of Alexa Fluor 488-PR30 peptide (human) (peptide, as listed by the source): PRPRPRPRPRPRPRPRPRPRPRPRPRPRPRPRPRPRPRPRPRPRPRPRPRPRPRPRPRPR

Turning to “TMR-dynein-dynactin-BICD2N complex (from UniProt Q14204 1-4646; A0A287B8J2 1-1281)”, the percent of processive motor complexes transporting large foci of PR30 came out at 8.1%.
